{"source": "patent US7060495", "about": "(AVENTIS PHARMA DEUTSCHLAND, dated 2006)", "binders": {"B1": {"name": "sFv-huβ-Gluc fusion protein (humanized sFv 431/26 against CEA linked via a hinge to human β-glucuronidase, expressed in BHK cells) (other)", "chain": "QVQLQESGPGLVRPSQTLSLTCTVSGFTISSGYSWHWVRQPPGRGLEWIGYIQYSGITNYNPSLKSRVTMLVDTSKNQFSLRLSSVTAADTAVYYCAREDYDYHWYFDVWGQGTTVTVSSGGGGSGGGGSGGGGSDIQLTQSPSSLSASVGDRVTITCSTSSSVSYMHWYQQKPGKAPKLLIYSTSNLASGVPSRFSGSGSGTDFTFTISSLQPEDIATYYCHQWSSYPTFGQGTKLEIKELKTPLGDTTHTCPRCPAAAAVQGGMLYPQESPSRECKELDGLWSFRADFSDNRRRGFEEQWYRRPLWESGPTVDMPVPSSFNDISQDWRLRHFVGWVWYEREVILPERWTQDLRTRVVLRIGSAHSYAIVWVNGVDTLEHEGGYLPFEADISNLVQVGPLPSRLRITIAINNTLTPTTLPPGTIQYLTDTSKYPKGYFVQNTYFDFFNYAGLQRSVLLYTTPTTYIDDITVTTSVEQDSGLVNYQISVKGSNLFKLEVRLLDAENKVVANGTGTQGQLKVPGVSLWWPYLMHERPAYLYSLEVQLTAQTSLGPVSDFYTLPVGIRTVAVTKSQFLINGKPFYFHGVNKHEDADIRGKGFDWPLLVKDFNLLRWLGANAFRTSHYPYAEEVMQMCDRYGIVVIDECPGVGLALPQFFNNVSLHHHMQVMEEVVRRDKNHPAVVMWSVANEPASHLESAGYYLKMVIAHTKSLDPSRPVTFVSNSNYAADKGAPYVDVICLNSYYSWYHDYGHLELIQLQLATQFENWYKKYQKPIIQSEYGAETIAGFHQDPPLMFTEEYQKSLLEQYHLGLDQKRRKYVVGELIWNFADFMTEQSPTRVLGNKKGIFTRQRQPKSAAFLLRERYWKIANETRYPHSVAKSQCLENSPFT", "modifications": "glycosylated (galactose, mannose and other carbohydrates, Table 2)", "notes": "scFv-enzyme fusion"}}, "key": {"[1]": {"molecular_target": "T1, carcinoembryonic antigen (CEA) (UniProt P06731 35-685, limits assumed)", "T1 construct": "Tumor-associated antigen coated on microtiter plates in the specificity enzyme activity test", "T1 sequence (looked up)": "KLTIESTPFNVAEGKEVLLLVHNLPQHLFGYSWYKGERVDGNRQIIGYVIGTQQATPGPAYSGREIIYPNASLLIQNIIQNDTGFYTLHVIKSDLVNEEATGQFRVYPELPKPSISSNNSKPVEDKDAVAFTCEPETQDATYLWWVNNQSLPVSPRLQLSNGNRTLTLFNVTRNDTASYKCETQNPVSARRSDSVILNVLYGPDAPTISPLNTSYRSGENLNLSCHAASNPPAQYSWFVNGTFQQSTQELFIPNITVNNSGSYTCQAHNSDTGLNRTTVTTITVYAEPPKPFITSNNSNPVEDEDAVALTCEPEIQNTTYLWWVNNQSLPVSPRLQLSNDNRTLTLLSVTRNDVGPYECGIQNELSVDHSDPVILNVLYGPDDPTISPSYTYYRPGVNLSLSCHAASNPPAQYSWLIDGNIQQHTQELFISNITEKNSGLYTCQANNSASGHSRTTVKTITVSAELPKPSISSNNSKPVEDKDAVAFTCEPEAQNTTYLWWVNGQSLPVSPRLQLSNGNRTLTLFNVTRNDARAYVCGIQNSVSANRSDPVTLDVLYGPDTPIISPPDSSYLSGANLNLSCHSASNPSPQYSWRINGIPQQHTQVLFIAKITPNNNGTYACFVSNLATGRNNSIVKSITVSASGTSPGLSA", "assay": "specificity enzyme activity test (refers to Example 5)", "source_text": "(§1) The test determines the liberation of 4-methylumbelliferone from 4-methylumbelliferyl β-glucuronide by the β-glucuronidase portion of the fusion protein after the fusion protein has been bound via the sFv portion to an antigen. The measured fluorescence values are reported as relative fluorescence units (FU)."}, "[2]": {"molecular_target": "T2, polymorphic epithelial mucin (PEM) (UniProt P15941 24-1097, limits assumed)", "T2 construct": "Control antigen in the specificity enzyme activity test", "T2 sequence (P15941 24-1097 limits assumed)": "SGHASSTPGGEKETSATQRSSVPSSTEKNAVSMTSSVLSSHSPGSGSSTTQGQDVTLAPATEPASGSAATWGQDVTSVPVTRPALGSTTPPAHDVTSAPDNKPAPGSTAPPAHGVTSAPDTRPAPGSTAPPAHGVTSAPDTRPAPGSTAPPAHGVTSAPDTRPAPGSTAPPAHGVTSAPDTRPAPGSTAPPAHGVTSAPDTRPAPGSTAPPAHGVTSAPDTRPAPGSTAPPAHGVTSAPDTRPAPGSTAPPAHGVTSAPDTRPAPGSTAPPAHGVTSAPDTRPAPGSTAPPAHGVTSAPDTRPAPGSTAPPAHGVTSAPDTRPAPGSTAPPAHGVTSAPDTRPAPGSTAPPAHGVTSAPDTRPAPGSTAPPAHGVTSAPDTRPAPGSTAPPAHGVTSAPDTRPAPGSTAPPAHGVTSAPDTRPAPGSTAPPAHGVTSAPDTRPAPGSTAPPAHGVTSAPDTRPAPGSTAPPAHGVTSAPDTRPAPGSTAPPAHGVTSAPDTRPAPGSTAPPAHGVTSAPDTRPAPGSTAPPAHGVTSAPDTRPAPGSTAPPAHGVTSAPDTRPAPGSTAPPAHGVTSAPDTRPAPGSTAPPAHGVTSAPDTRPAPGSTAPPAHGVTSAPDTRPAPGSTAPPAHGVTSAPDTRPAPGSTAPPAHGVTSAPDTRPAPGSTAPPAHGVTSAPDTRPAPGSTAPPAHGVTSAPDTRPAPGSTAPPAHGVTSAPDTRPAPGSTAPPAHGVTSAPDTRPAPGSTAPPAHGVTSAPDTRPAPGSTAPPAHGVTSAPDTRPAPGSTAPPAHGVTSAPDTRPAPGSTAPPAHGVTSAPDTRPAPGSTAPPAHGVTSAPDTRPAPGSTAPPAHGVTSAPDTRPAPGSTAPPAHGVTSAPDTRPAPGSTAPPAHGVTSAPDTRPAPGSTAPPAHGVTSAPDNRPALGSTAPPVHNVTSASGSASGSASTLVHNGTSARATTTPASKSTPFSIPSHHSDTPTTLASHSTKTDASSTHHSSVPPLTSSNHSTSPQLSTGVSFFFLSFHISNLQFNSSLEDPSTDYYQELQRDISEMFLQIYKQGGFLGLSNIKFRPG", "assay": "specificity enzyme activity test: antigen-coated plate, bound fusion protein detected by its β-glucuronidase activity on 4-methylumbelliferyl β-glucuronide", "source_text": "as §1"}}, "data": [{"binder": "B1", "values": [{"measurement": "binding result", "setting": "[1]", "value": "binds"}, {"measurement": "binding result", "setting": "[2]", "value": "no binding"}]}]}
